Laboratory results as given in paper PMC9703647 (Nature, 2022).

Biological target: the molecule itself
Experiment: cross-linking

B1: GSDMA_(1–246) (domain or fragment, human, UniProt Q96QA5 1-246, looked up)
chain: MTMFENVTRALARQLNPRGDLTPLDSLIDFKRFHPFCLVLRKRKSTLFWGARYVRTDYTLLDVLEPGSSPSDPTDTGNFGFKNMLDTRVEGDVDVPKTVKVKGTAGLSQNSTLEVQTLSVAPKALETVQERKLAADHPFLKEMQDQGENLYVVMEVVETVQEVTLERAGKAEACFSLPFFAPLGLQGSINHKEAVTIPKGCVLAFRVRQLMVKGKDEWDIPHICNDNMQTFPPGEKSGEEKVILIQ
  binding result: binds
